From publication PMC3392108 (Human Molecular Genetics, 2012) come the findings set out here.

For orientation: Kd means the constant that tells how readily two partners part at equilibrium. Higher therefore signals lower affinity.

Where no end group is shown, it is not given here.

Assay in all cases: fluorescence polarisation
A general note: In fluorescence polarisation assays a small probe gives low polarisation when free and higher when bound to something large.

Experiment [1] deals with human mitochondrial Hsp70 (mtHsp70), wild-type (human, UniProt P38646 47-679).
Chain of human mitochondrial Hsp70 (mtHsp70), wild-type (P38646 47-679): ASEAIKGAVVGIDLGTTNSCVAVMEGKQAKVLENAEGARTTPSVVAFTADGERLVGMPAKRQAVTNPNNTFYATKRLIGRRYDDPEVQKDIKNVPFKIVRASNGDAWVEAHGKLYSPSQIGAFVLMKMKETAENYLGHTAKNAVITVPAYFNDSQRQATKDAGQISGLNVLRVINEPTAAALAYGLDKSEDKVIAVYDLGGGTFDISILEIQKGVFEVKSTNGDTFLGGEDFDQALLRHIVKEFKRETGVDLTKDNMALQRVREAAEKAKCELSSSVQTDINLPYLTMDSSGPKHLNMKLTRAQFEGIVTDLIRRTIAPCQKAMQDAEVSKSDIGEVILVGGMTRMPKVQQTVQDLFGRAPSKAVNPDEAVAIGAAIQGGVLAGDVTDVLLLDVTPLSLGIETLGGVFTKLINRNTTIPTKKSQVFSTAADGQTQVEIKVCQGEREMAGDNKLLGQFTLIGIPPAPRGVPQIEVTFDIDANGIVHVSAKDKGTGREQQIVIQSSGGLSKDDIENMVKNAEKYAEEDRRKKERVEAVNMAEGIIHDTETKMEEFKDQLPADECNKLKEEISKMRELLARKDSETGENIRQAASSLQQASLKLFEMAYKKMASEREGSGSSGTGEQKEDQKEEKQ
Experiment [2] addresses human mtHsp70 R126W PD variant (human, UniProt P38646 47-679, R126W).
For experiment [3], the target named is human mtHsp70 P509S PD variant (human, UniProt P38646 47-679, P509S).
Chain of human mtHsp70 P509S PD variant (P38646 47-679 P509S): as the sequence (P38646 47-679) above, with P463S counted along it

Chain of human mtHsp70 R126W PD variant (P38646 47-679 R126W): as the sequence (P38646 47-679) above, with R80W counted along it

In the case of ALLLSAPRR (also: fluorescein label, position not given here) [fluorescein-labeled P5 peptide (F-P5)], the Kd in experiment [1] was 15.6 ± 1.4 µM; in experiment [2], 13.6 ± 2.7 µM; in experiment [3], 15.7 ± 1.9 µM.
